Test results as given in US11505586B2, “Interaction of Draxin and γ-netrins” (Max-Planck-Gesellschaft zur Foerderung der Wissenschaften …, priority 2014, dated 2022).

Key:
endogenous netrins = test: In situ detection of Draxin binding partners with affinity probe; design: species or system zebrafish
Method: A netrin binding fragment of Draxin (aa209-284) fused to the Fc region of human IgG (Draxinaa209-284-hFc) has been expressed in HEK293-6E cells and used as an affinity probe to detect binding partners in zebrafish embryos. Draxinaa209-284-hFc in situ staining has been done in whole mount wild type and netrin-1 knockdown zebrafish embryos. At 46 hpf wild type zebrafish embryos were dechorionated by for 2 hours at RT incubation in 0.1 mg/ml Pronase. At 48 hpf embryos were prefixed for 10 min at RT in 4% (w/v) paraformaldehyde (PFA) containing 1% Triton X-100 (v/v). After 3 washes (each 20 min) with PBS+1% Triton X-100 the embryos were blocked for 4 h at RT in PBS containing 0.2% BSA and 0.5% Triton X-100. Overnight incubation at 4° C. with HEK293-6E supernatant containing the Draxin-hFc fusion protein was followed by 3 short washes (10 min each) with PBST. Subsequently the embryos were post-fixed in 4% PFA (4 h at RT or overnight at 4° C.), rinsed shortly 3 times with PBST and incubated for 4 h at RT with an Alexa Fluor 568 goat anti human IgG antibody (Invitrogen, 1:250 dilution). After 3 washes (30 min each) in PBST the embryos were mounted in glycerol for visualization using a Zeiss LSM 510 microscope. […]

Netrin1a/DCC = test: AVEXIS based competition assay; type: binding, zebrafish; conditions: for inhibition of binding of Netrin1a to DCC: inhibitor added together with DCC prey, Netrin1a bait
Excerpt: (§1) The procedure of the competition assay is based on the AVEXIS assay. Netrin1 receptors were used as prey proteins together with 6×His ? tagged purified Draxin (potential antagonist), and probed against Netrin1a bait proteins. The indicated concentrations of the potential inhibitors have been added together with prey proteins. For the competition tests with purified Draxin the concentration of the Netrin receptor prey proteins has been adjusted to an identical threshold binding concentration.
We determined the concentration of ECD-hFc fusion proteins in tissue culture supernatants by ELISA, using the human IgG Fc fragment (Calbiochem) as a reference. Dilution series of the ECD-hFc containing supernatants have been incubated over night at 4° C. on 96 well Maxisorp plates (Nunc). After 3 PBS washes the plates were blocked with 0.5% BSA containing PBS (1 h). After additional 2 PBS washes and 1-hour incubation with an anti-human IgG (Fc specific) antibody fused to alkaline phosphatase (SIGMA) the plates have been washed 3 times with PBS. The detection has been carried out by addition of 50 μl/well of the AP substrate p-nitrophenylphosphate (SouthernBiotech). The substrate turnover has been determined by measuring the absorbance at 405 nm.
(§2) By using an AVEXIS-based competition assay (FIG. 6 A) we tested whether the binding of DraxinA to Netrin1a has an influence on Netrins ability to bind to Netrin receptors. First we confirmed that we reliably detected the binding of Netrin1a to Netrin receptors of the DCC/Neo1 and Unc5 families with the AVEXIS method. We also tested whether Draxin is able to bind to the corresponding Netrin receptors. […] This has also been confirmed by a recent publication (Haddick et al. 2014). In the competition assay the extracellular domains (ECDs) of Netrin receptors have been used as prey proteins together with purified full length DraxinA and probed for binding against Netrin1a bait proteins. […] The inhibition is specific for DraxinA.

RGMc/Neo1 = test: AVEXIS based competition assay; type: binding, zebrafish
Netrin1a = test: AVEXIS extracellular protein-protein interaction screen; type: binding, zebrafish
Excerpt: To detect extracellular protein-protein interactions in a high-throughput manner we used the AVEXIS assay as described in Bushell et al. (Bushell et al., 2008) with minor modifications.
In brief: A zebrafish protein library enriched for mainly in neuronal tissues expressed secreted proteins and extracellular domains of cell surface proteins has been assembled. The library consists of prey and bait proteins. Preys are composed of the extracellular domain (ECD) of interest followed by a CD4 tag (rat Cd4d3+4) and a pentamerization domain derived from the rat Comp protein followed by β-lactamase. For the bait proteins the ECDs are fused to a CD4 tag and a biotinylation peptide. […] The proteins in the supernatants have been quantified and normalized.
The bait proteins have been immobilized on streptavidin coated 96 well microtiter plates (one bait/well) and incubated for 1 hour at room temperature. […] Then the absorbance at 486 nm of each well has been measured using a μQuant spectrophotometer (BIO-TEK Instruments, INC). […]
In the primary screen interactions were ‘called’ if the absorbance (at 486 nm) of a well after 1 h of incubation was ≥0.1 and 3 Sigma above the standard deviations of the mean of all wells. All interactions detected in the primary screen have been retested in a validation screen by using independently produced batches of proteins.

Netrin1a/Neo1 = test: AVEXIS based competition assay; type: binding, zebrafish; conditions: purified protein with Neo1 prey, Netrin1a bait
Excerpt: as §1, §2

Netrin1a/Unc5b = test: AVEXIS based competition assay; type: binding, zebrafish; conditions: purified protein with Unc5b prey, Netrin1a bait
Excerpt: as §1, §2

Netrin-1 = molecular target: T1, Netrin-1 (Homo sapiens, UniProt O95631); test: AVEXIS pairwise binding screen, human proteins; conditions: both bait/prey orientations
T1 construct: made in house; host or cells: HEK293-6E (general AVEXIS method)
Excerpt: (§3) AVEXIS was used to test pairwise binding events in both bait/prey orientations between human DRAXIN, the derived 21 amino acid peptide, human Netrin family members, and two representative Netrin receptors (DCC, UNC5B). The Matn4-bait served as an internal prey-protein control and was used for normalization of the A486 nm values; conditioned medium (CM) serves as negative control; n=3.
(§4) To determine the binding specificity of DRAXIN/Netrin interactions, we carried out a pairwise binding screen between human DRAXIN and human Netrin family members. Except Netrin-5, we included all human Netrin family members consisting of two secreted γ-Netrins (Netrin-1 and Netrin-3) and one secreted (Netrin-4) and two GPI-linked β-Netrins (Netrin-G1 and Netrin-G2) in our binding study. Human DRAXIN and a 21 amino acid Netrin binding fragment derived thereof (SEQ ID NO.: 1) bound to Netrin-1 and Netrin-3 but not to human β-Netrin family members (FIG. 13).

[1] = system: human β-Netrin family members; test: AVEXIS pairwise binding screen, human proteins; conditions: Netrin-4, Netrin-G1, Netrin-G2
Excerpt: as §3, §4

Netrin-3 = molecular target: T2, Netrin-3 (Homo sapiens, UniProt O00634); test: AVEXIS pairwise binding screen, human proteins; conditions: both bait/prey orientations
T2 construct: made in house; host or cells: HEK293-6E (general AVEXIS method)
T2 sequence (O00634 28-580): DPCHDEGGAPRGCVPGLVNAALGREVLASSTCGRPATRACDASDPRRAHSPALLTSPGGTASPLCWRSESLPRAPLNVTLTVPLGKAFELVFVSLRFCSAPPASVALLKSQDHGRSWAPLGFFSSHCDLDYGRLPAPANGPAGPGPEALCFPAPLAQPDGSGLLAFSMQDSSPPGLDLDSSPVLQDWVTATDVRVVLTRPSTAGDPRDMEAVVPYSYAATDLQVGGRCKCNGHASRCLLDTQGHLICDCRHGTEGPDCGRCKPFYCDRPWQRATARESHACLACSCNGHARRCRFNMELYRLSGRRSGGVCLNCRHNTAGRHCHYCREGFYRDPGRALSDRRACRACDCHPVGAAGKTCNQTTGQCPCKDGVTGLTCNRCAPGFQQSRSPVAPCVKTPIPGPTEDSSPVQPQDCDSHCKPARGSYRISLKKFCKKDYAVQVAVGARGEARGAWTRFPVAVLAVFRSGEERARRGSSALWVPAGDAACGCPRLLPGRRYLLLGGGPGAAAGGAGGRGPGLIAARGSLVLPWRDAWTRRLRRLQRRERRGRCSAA
Excerpt: as §3, §4

B1: Draxinaa209-284-hFc: netrin binding fragment of Draxin (aa209-284) fused to the Fc region of human IgG, affinity probe (protein)
chain: GHPPTLPPASTKPQKSSQGRTQGEVMPTLDMTLFDWTDYEDMKPADSWPSNKRKDKRRSKNKSNGNTTTEAGIVEP
modifications: left off: a dimerising Fc or GST
- in situ signal of bound affinity probe (endogenous netrins; 48 hpf netrin1a and netrin1b double-knockdown embryos): barely detectable
- in situ signal of bound affinity probe (endogenous netrins; 48 hpf wild type embryos): only detect a signal in close proximity to the floor plate

B2: DraxinAΔaa231-252-hFc: DraxinA-hFc where the 21aa Netrin1 binding motif has been deleted (protein)
chain: SEISSDNFKQSLTPSTTTSKEHPETGLTGGRQQKRHWSGKERDSAGLFSQRHMDRLEDDGTSMEGLSPVRLEMGPGDTMKAEVHGEVRASAQMRQGSHPAEGELNRKGRRHSHRLLAEHRKHGGKKDKGRGKGDLSDPEPELDSLLKDLNAFEDGLNTSPPNYNSVPLNEVPSPLSPILVTTAIKGHPPTLPPASTKPQKSSQGRTQADSWPSNKRKDKRRSKNKSNGNTTTEAGIVEPCDHHLDCLSGSCCDLREFECKPHNRGLNNKCFDDCMCEEGLRCYAKFHRKRRVTRRRGRCVDPESVNSNQGAFITV
modifications: left off: a dimerising Fc or GST
- inhibition of binding of Netrin1a to DCC (Netrin1a/DCC): not able to compete

B3: DraxinA: full-length zebrafish Draxin isoform A (SEQ ID NO.: 5), 360 amino acids; purified as His-tagged CD4d3+4 fusion (protein)
chain: MVAPGLCQLFILLLITLSHTLHSSEISSDNFKQSLTPSTTTSKEHPETGLTGGRQQKRHWSGKERDSAGLFSQRHMDRLEDDGTSMEGLSPVRLEMGPGDTMKAEVHGEVRASAQMRQGSHPAEGELNRKGRRHSHRLLAEHRKHGGKKDKGRGKGDLSDPEPELDSLLKDLNAFEDGLNTSPPNYNSVPLNEVPSPLSPILVTTAIKGHPPTLPPASTKPQKSSQGRTQGEVMPTLDMTLFDWTDYEDMKPADSWPSNKRKDKRRSKNKSNGNTTTEAGIVEPCDHHLDCLSGSCCDLREFECKPHNRGLNNKCFDDCMCEEGLRCYAKFHRKRRVTRRRGRCVDPESVNSNQGAFITV
modifications: His-tagged CD4d3+4 fusion; Danio rerio
notes: purified as His-tagged CD4d3+4 fusion
- inhibition of binding of RGMc to Neo1 (RGMc/Neo1): not able to block
- binding of prey protein to Netrin1a bait (Netrin1a; pentameric prey, library of 171 bait proteins): specifically bound
- inhibition of binding of Netrin1a to Neo1 (Netrin1a/Neo1): concentration dependent inhibition
- inhibition of binding of Netrin1a to Unc5b (Netrin1a/Unc5b): concentration dependent inhibition
- disruption of already formed DCC/Netrin1a complexes (Netrin1a/DCC; Netrin1a-baits preincubated with DCC preys, then purified DraxinA added): can be disrupted
- inhibition of binding of Netrin1a to DCC (Netrin1a/DCC): concentration dependent inhibition

B4: Human DRAXIN: human Draxin (SEQ ID NO.: 4) expressed as AVEXIS bait/prey protein (protein, listed as Homo sapiens)
chain: MAGPAIHTAPMLFLVLLLPLELSLAGALAPGTPARNLPENHIDLPGPALWTPQASHHRRRGPGKKEWGPGLPSQAQDGAVVTATRQASRLPEAEGLLPEQSPAGLLQDKDLLLGLALPYPEKENRPPGWERTRKRSREHKRRRDRLRLHQGRALVRGPSSLMKKAELSEAQVLDAAMEESSTSLAPTMFFLTTFEAAPATEESLILPVTSLRPQQAQPRSDGEVMPTLDMALFDWTDYEDLKPDGWPSAKKKEKHRGKLSSDGNETSPAEGEPCDHHQDCLPGTCCDLREHLCTPHNRGLNNKCFDDCMCVEGLRCYAKFHRNRRVTRRKGRCVEPETANGDQGSFINV
modifications: AVEXIS bait/prey tags
- binding of human Draxin to zebrafish Netrin1a (Netrin1a; cross-species, both bait-prey orientations): able to bind
- binding to Netrin-1 (Netrin-1): bound
- binding to human β-Netrin family members [1]: not
- binding to Netrin-3 (Netrin-3): bound

B5: DraxinA-hFc: full-length DraxinA fused to human Fc (protein)
chain: SEISSDNFKQSLTPSTTTSKEHPETGLTGGRQQKRHWSGKERDSAGLFSQRHMDRLEDDGTSMEGLSPVRLEMGPGDTMKAEVHGEVRASAQMRQGSHPAEGELNRKGRRHSHRLLAEHRKHGGKKDKGRGKGDLSDPEPELDSLLKDLNAFEDGLNTSPPNYNSVPLNEVPSPLSPILVTTAIKGHPPTLPPASTKPQKSSQGRTQGEVMPTLDMTLFDWTDYEDMKPADSWPSNKRKDKRRSKNKSNGNTTTEAGIVEPCDHHLDCLSGSCCDLREFECKPHNRGLNNKCFDDCMCEEGLRCYAKFHRKRRVTRRRGRCVDPESVNSNQGAFITV
modifications: left off: a dimerising Fc or GST
- inhibition of binding of Netrin1a to DCC (Netrin1a/DCC): able to outcompete
